Article PMC5726015, “Selection, characterization, and thermal stabilization of llama single domain antibodies towards Ebola virus glycoprotein” (Microbial Cell Factories, 2017)
Substitutions are numbered along the chain they refer to.

B1: R2A1 (VHH)
VHH: EVQLQASGGGLVQARGSLQLSCAAPGRPVRTYTMGWFRQAPGKEREFVAANNWRGTRYAGSVRGRFSISRDNSKNTVYLQMNSLKPEDTAVYYCACAVTADLLLSGNYFRGDDYDYWGQGTQVTVS
B2: R3G10 (VHH)
VHH: B1 VHH with L11S, R15G, I68T
B3: R2B4 (VHH)
VHH: B1 VHH with R15G, V98E
B4: R2E4 (VHH)
VHH: B1 VHH with R15G
B5: R3H8 (VHH)
VHH: B1 VHH with R15G, R27H
B6: R2E6 (VHH)
VHH: B1 VHH with E1D, R15G, K43M, Y58H
B7: R3C11 (VHH)
VHH: B1 VHH with E1D, R15G, K43E, I68V, F109Y, Q119L
B8: R2H1 (VHH)
VHH: EVLLQASGGGLVQPGGSLRLSCAASGLIFSINVMGWYRQTPGKQRELVASISRDDSTKYADSVKGRFTISRDNAKNTVYLQMNSLKPEDTAVYYCNTQTEGPVADWGTSHYDYWGQGTQVTVS
B9: R2H11 (VHH)
VHH: EVQLQASGGGLVQAGGSTRLSCAGSGSIFSINAMGWYRQTPEKQRELVATISSSGSTKYGDSVKGRFTISRDNAKNTVYLQMNSLKPEDTAVYYCNTQTAGPVADWGTSHYDYWGQGVQVTVS
B10: R2D10 (VHH)
VHH: EVQLQASGGGLVEPGGPLRLSCAVSGINFNINHWGWYRQAPGKQREWVATIAIGGATDYADSLKGRFTISRDNMKNTVYLQMNSLRPEDTAVYYCNGVGSKWSDRWGQGTQVTVS
B11: R2G2 (VHH)
VHH: B10 VHH with P17S
B12: R3F8 (VHH)
VHH: B10 VHH with P17S, L63V
B13: R2C8 (VHH)
VHH: B10 VHH with P17S, G55S, T68A, G107D
B14: R3B7 (VHH)
VHH: DVQLQASGGGLVQTGGSLRLACAGSGRSFNNYGMGWFRQAPGKERQFVAAISGNDHTTHYSDSVKGRFTISRDNAKSTVYLQMNSLKPEDTAVYYCAADRLGSFFFPRASPSDYGYWGQGTQVTVS
B15: R3F12 (VHH)
VHH: DVQLQASGGGLVQAGGSLRLSCAASSGTFSSYTMGWFRQAPGKERELVARLSQSLTTLYADSVKGRFTISRDNAENTVYLQMNSLKPEDTGVYYCAAHPGTYGSAWLISPHDYAYWGQGAQVTVS
B16: EBOV-GP-A8 (VHH)
VHH: B1 VHH with V12A, R15G
notes: also called Bt-EBOV-GP-A8
B17: EBOV-GP-G6 (VHH)
VHH: DVQLQASGGGLVQAGGSLRISCAASGGALSDYNMGWFRQAPGKEREFVAVVTWSGGSTRYADSVNGRFTISRDNAKNTVYLQMNSLKPEDTAVYYCAAAPLTPFQSLGDMKAYNYWGQGTQVTVS
B18: EBOV-GP-D1 (VHH)
VHH: EVQLQASGGGSVPPGGSLRLSCTASLRAFSTYTMGWFRQAPGKEREFVAASNWRGTDFHDSVRGRFIISRDNTEKTVDLQMNSLKPEDTAIYYCAADGSTWLKRSDYSYWGQGTQVTVS
B19: EBOV-GP-B5 (VHH)
VHH: B18 VHH with S11L, P13Q, P14A, R63K, E74K
B20: EBOV-GP-C12 (VHH)
VHH: EVQLQASGGGLVQPGGSLRLSCTASGSIFSINAMGWYRQTPRKERELVAAISEGGSTKYGDSVKGRFTISRDFAKNTQMVYLQMNSLKAEDTAVYYCKAQTEGPIADWGTSQYEYWGQGTQVTVS
B21: EBOV-GP-E7 (VHH)
VHH: B9 VHH with A14P, G15R, T18L, G24A, P102L
B22: EBOV-GP-B11 (VHH)
VHH: B14 VHH with D1E, S77T
B23: EBOV-GP-H7 (VHH)
VHH: B15 VHH with A120T
B24: EBOV-GP-G6-neg+ (VHH)
VHH: DVQLVESGGGLVQAGGSLRISCAASGGALSDYNMGWFRQAPGKEREFVCVVTWSGGSTRYADSVNGRFTCSRDNAKNTVYLQMNSLKPEDTAVYYCAAAPLTPFQSLGDMKAYNYWGQGTQVTVSS
notes: also called Bt-sdAb-neg+
B25: EBOV-GP-H7-neg+ (VHH)
VHH: DVQLVESGGGLVQAGGSLRLSCAASSGTFSSYTMGWFRQAPGKERELVCRLSQSLTTLYADSVKGRFTCSRDNAENTVYLQMNSLKPEDTGVYYCAAHPGTYGSAWLISPHDYAYWGQGTQVTVSS
notes: also called EBOV-H7-neg+; Bt-sdAb-neg+
B26: EBOV-GP-A8-neg+ (VHH)
VHH: EVQLVESGGGLVQAGDSLQLSCAAPGRPVRTYTMGWFRQAPGKEREFVCANNWRGTRYAGSVRGRFSCSRDNSKNTVYLQMNSLKPEDTAVYYCACAVTADLLLSGNYFRGDDYDYWGQGTQVTVSS
B27: EBOV-GP-A8-fneg+ (VHH)
VHH: B26 VHH with C96S
notes: also called Bt-sdAb-neg+

The binders below were run against Recombinant EBOV GP without transmembrane domain (Zaire ebolavirus, strain of GP not …, UniProt Q05320) (assay: not given). Settings: not given.

B1: binds.
B2: binds.
B3: binds.
B4: binds.
B5: binds.
B6: binds.
B7: binds.
B8: binds.
B9: binds.
B10: binds.
B11: binds.
B12: binds.
B13: binds.
B14: binds.
B15: binds.

These binders were tested against T1, Recombinant EBOV GP without transmembrane domain (Zaire ebolavirus, strain of GP not …, UniProt Q05320) (assay: SPR). Settings: both partners purified.
T1 construct: also called recombinant GP; EBOV rGPdTM; source: bought: IBT Bioservices

B16 and B17 are within 1.5-fold of each other in Kd: 2.3 nM for the first, 2 nM for the second.

B18 and B19 are the same in Kd: 11 nM for the first, 11 nM for the second.

B20 and B21 are within 1.5-fold of each other in Kd: 26.8 nM for the first, 34 nM for the second.

Going from B22 to B23, the Kd falls from 35.9 nM to 17 nM (2.1-fold).

First: B16
Second: B17
The koff of the first is 2.1-fold lower: 7.2e-05 s⁻¹ for the first, 0.00015 s⁻¹ for the second.

B18 and B19 are within 1.5-fold of each other in koff: 0.00033 s⁻¹ for the first, 0.00037 s⁻¹ for the second.

B20 and B21 are within 1.5-fold of each other in koff: 8.71e-05 s⁻¹ for the first, 0.00011 s⁻¹ for the second.

Compared with B22, B23 is 11-fold lower in koff: 0.00321 s⁻¹ for the first, 0.0003 s⁻¹ for the second.

First: B16
Second: B17
The kon of the first is 2.3-fold lower: 31000 M⁻¹ s⁻¹ for the first, 70000 M⁻¹ s⁻¹ for the second.

B18 and B19 are within 1.5-fold of each other in kon: 30000 M⁻¹ s⁻¹ for the first, 34000 M⁻¹ s⁻¹ for the second.

B20 and B21 are within 1.5-fold of each other in kon: 3280 M⁻¹ s⁻¹ for the first, 3500 M⁻¹ s⁻¹ for the second.

Going from B22 to B23, the kon falls from 89800 M⁻¹ s⁻¹ to 17000 M⁻¹ s⁻¹ (5.3-fold).

Biological target: T1, Recombinant EBOV GP without …
Assay: SPR
Settings: both partners purified
Remark: another data set of the same source

B24 and B25 are within 1.5-fold of each other in Kd: 44 nM for the first, 40 nM for the second.

B26 and B27 are within 1.5-fold of each other in Kd: 0.95 nM for the first, 0.69 nM for the second.

First: B24
Second: B25
The koff of the first is 9.3-fold lower: 0.00015 s⁻¹ for the first, 0.0014 s⁻¹ for the second.

Compared with B26, B27 is 1.6-fold higher in koff: 5.8e-05 s⁻¹ for the first, 9.1e-05 s⁻¹ for the second.

Going from B24 to B25, the kon rises from 3500 M⁻¹ s⁻¹ to 35000 M⁻¹ s⁻¹ (10-fold).

First: B26
Second: B27
The kon of the first is 2.1-fold lower: 61000 M⁻¹ s⁻¹ for the first, 130000 M⁻¹ s⁻¹ for the second.
